Experimental findings from patent US20220211826A1 are described below.

Assay [1] concerns the target PD-L1 expressed by hepatocytes of C57BL/6 mice (mouse) (UniProt Q9EP73). Nature of the assay: cell-based or functional assay.
Assay [2] addresses H-2Kb/SIINFEKL pMHC complex on primary hepatocytes (mouse). Nature of the assay: cell-based or functional assay.

Sequence of UniProt Q9EP73 (Q9EP73 19-290): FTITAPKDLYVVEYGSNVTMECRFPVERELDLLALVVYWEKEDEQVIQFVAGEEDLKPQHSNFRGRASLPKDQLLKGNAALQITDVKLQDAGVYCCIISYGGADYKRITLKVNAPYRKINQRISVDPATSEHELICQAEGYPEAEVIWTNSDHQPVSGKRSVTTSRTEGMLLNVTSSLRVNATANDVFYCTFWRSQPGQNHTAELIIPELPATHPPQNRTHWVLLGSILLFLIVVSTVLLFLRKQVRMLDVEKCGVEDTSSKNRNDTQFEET

Take “αPD-L1 blocking Ab (BioxCell, clone 10F.9G2) (antibody)”: in assay [1], the frequency of CD45.1+ OT-I cells among viable CD3+CD8+ lymphocytes in dLNs, mice given pGal-OVA- and αPD-L1-treated hepatocytes was 0.45%; the frequency of IFN-γ+ OT-I cells after OVA/LPS challenge, αPD-L1-treated hepatocytes is 47.1%; the frequency of IL-2+ OT-I cells after OVA/LPS challenge, αPD-L1-treated hepatocytes was 7.53%.

As to “rat IgG isotype control Ab (Abcam) (antibody)”, in assay [1], the frequency of CD45.1+ OT-I cells among viable CD3+CD8+ lymphocytes in dLNs, mice given hepatocytes treated with pGal-OVA and isotype control antibody stood at 0.2%; the frequency of dLN IFN-γ+ OT-I cells, pGal-OVA and isotype control antibody-treated hepatocytes was found to be 29.2%; the frequency of dLN IL-2+ OT-I cells, pGal-OVA and isotype control antibody-treated hepatocytes turned out to be 4.21%.

In assay [2], “T cell receptor of OT-I cells (transgenic CD8+ T cells specific for H-2Kb/SIINFEKL) (TCR)” registered a CD69+ OT-I cells after 24 hr co-culture with hepatocytes incubated with pGal-OVA alone of 17%; a CD69+ OT-I cells after 24 hr co-culture with hepatocytes treated with pGal-OVA and MG132 of 3.98%; a CD69+ OT-I cells after 24 hr co-culture with hepatocytes treated with pGal-OVA and chloroquine of 7.38%.
